Changes are numbered by the printed parent chain.
B1: 367_C01 (antibody, V domains shown)
VH: EVQLLESGGGLVQPGGSLRLSCAASGFTFDDYSMNWVRQAPGKGLEWVSGINYNGGYKSYADSVKGRFTISRDNSKNTLYLQMNSLRAEDTAVYYCARSANWHDTHLDYWGQGTLVTVSS
VL: DIQMTQSPSSLSASVGDRVTITCRASQSILTYLNWYQQKPGKAPKLVIYATTSLHSGVPSRFSGSGSGTDFTLTISSLQPEDFATYYCQQSYDTPLTFGGGTKVEIK
B2: 367_E04 (antibody, V domains shown)
VH: B1 VH with D30S, G50S, S59G
VL: B1 VL with T31S, V47L, T51A, L54R, H55A, D93E, T94S
B3: 367_H06 (antibody, V domains shown)
VH: B1 VH with D30S, D31S, S33G, G50N, K58T, S59G
VL: B1 VL with L30I, V47L, T51A, L54R, H55A
B4: 367_G05 (antibody, V domains shown)
VH: B1 VH with D30S, S33G, S49A, G50N, K58T, H106A
VL: B1 VL with L30V, T31S, T51A, H55A
B5: 367_F07 (antibody, V domains shown)
VH: B1 VH with D31S, S33G, N35H, S49A, G50N, K58T, S59G, H106A
VL: B1 VL with L30I, T31S, L33V, V47L, T51A, L54R, H55A, D93E
B6: 368_A01 (antibody, V domains shown)
VH: B1 VH with D30S, D31S, S33G, G50N, K58T, H106A
VL: B1 VL with L30I, T31S, V47L, T51A, L54R, T94N
B7: 367_F03 (antibody, V domains shown)
VH: B1 VH with D30S, D31S, S49A, G55S, H106A
VL: B1 VL with T31S, L33V, T51A, H55A, Y92D
B8: 367_G10 (antibody, V domains shown)
VH: B1 VH with S33G, K58T, H106A
VL: B1 VL with L30I, T31S, L33V, V47L, T51A, L54R, H55A, T94S
B9: 367_C05 (antibody, V domains shown)
VH: B1 VH with S33G, G50S, K58T, S59G
VL: B1 VL with T31S, L33V, T51A, L54R, T94L
B10: 367_E01 (antibody, V domains shown)
VH: B1 VH with D30S, D31S, S33G, S49A, H106A
VL: B1 VL with T31S, L33V, V47L, L54R, H55A, T94L
B11: 367_D10 (antibody, V domains shown)
VH: B1 VH with D31S, S33G, G50N, K58T, H106A
VL: B1 VL with L30I, T31S, T51A, L54R, H55A
B12: 367_G06 (antibody, V domains shown)
VH: B1 VH with D30S, D31S, S33G, G55S
VL: B1 VL with L33V, V47L
B13: 367_E11 (antibody, V domains shown)
VH: B1 VH with D31S, S33G, G50S, G55S, S59G
VL: B1 VL with L30V, T31S, L33V, T51A, L54R
B14: 367_H11 (antibody, V domains shown)
VH: B1 VH with D30S, D31S, S33G, S49A, S59G, H106A
VL: B1 VL with L30I, T31S, L33V, T51A, L54R, H55A, D93N, T94S
B15: 367_E09 (antibody, V domains shown)
VH: B1 VH with D30S, S33G, S49A, G50S, G55S, S59G, H106A
VL: B1 VL with T31S, L54R, H55A, D93E
B16: 373_C10 (antibody, V domains shown)
VH: B1 VH with D30S, D31S, S49A, K58T, S99G, H106A
VL: B1 VL with L33V, V47L, T51A, L54R, H55A, T94N
B17: 374_A06 (antibody, V domains shown)
VH: B1 VH with D30S, D31S, G50S, G55S, K58T, S99G
VL: B1 VL with T31S, T51A, L54R, H55A, T94S
B18: 373_H03 (antibody, V domains shown)
VH: B1 VH with D30S, D31S, G55S, S99G, H106A
VL: B1 VL with T31S, V47L, L54R, H55A, D93E, T94N
B19: 373_C03 (antibody, V domains shown)
VH: B1 VH with D30S, D31S, S99G, H106A
VL: B1 VL with L30V, T51A, L54R, H55A, T94S
B20: 373_F11 (antibody, V domains shown)
VH: B1 VH with D31S, S33G, N35H, G55S, K58T, S99G
VL: B1 VL with L30V, T31S, L33V, V47L, T51A, L54R, H55A, D93N, T94L
B21: 373_C07 (antibody, V domains shown)
VH: B1 VH with D31S, S49A, G55S, K58T, S99G
VL: B1 VL with T51A, L54R, H55A, D93E
B22: 372_B02 (antibody, V domains shown)
VH: B1 VH with D30S, D31S, G55S, K58T, S99G, H106A
VL: B1 VL with T31S, L33V, V47L, T51V, H55A, D93E
B23: 373_F12 (antibody, V domains shown)
VH: B1 VH with D30S, D31S, G50N, K58T, S59G, S99G, H106A
VL: B1 VL with L30S, T51A, L54R, H55A, D93E
B24: 373_A11 (antibody, V domains shown)
VH: B1 VH with D30S, D31N, S33G, S49A, G50N, K58T, S59G, S99G, H106A
VL: B1 VL with V47L, T51A, L54R, H55A, T94L
B25: 373_G08 (antibody, V domains shown)
VH: B1 VH with D31S, G50N, K58T, S99G, H106A
VL: B1 VL with V47L, T51A, H55A, T94S
B26: 373_H07 (antibody, V domains shown)
VH: B1 VH with D30S, D31S, S49A, K58T, S99G
VL: B1 VL with L30V, V47L, T51A, T52S, H55Q, T94S
B27: 367_F06 (antibody, V domains shown)
VH: B1 VH with D30S, D31S, S33G, G50S, G55S, K58T, S99A, H106A
VL: B1 VL with L30S, T31S, L33V, V47L, T51V, L54R, H55A, T94S
B28: 372_D03 (antibody, V domains shown)
VH: B1 VH with D30S, D31S, S49A, G55S, S99G, H106A
VL: B1 VL with T31S, L33V, T51V, L54R, T94S
B29: 372_E01 (antibody, V domains shown)
VH: B1 VH with S59G, S99G, H106A
VL: B1 VL with L30V, T31S, T51A, L54R, T94S
B30: 372_G12 (antibody, V domains shown)
VH: B1 VH with D31S, S49A, K58T, S59G, S99G
VL: B1 VL with T51A, L54R, T94S
B31: 373_A03 (antibody, V domains shown)
VH: B1 VH with D30S, S49A, G50N, K58T, S59G, S99G, H106A
VL: B1 VL with T31S, T51A, L54R, H55A, T94N
B32: 371_H08 (antibody, V domains shown)
VH: B1 VH with D30S, D31S, S33G, S49A, G50S, S59G, S99G
VL: B1 VL with L30I, T31S, L33V, T51V, L54R, H55A
B33: 373_E10 (antibody, V domains shown)
VH: B1 VH with D30S, K58T, S99G, H106A
VL: B1 VL with L33V, T51A, L54R, D93E
B34: 373_B07 (antibody, V domains shown)
VH: B1 VH with D31S, K58T, S99G, H106A
VL: B1 VL with L33V, T51A, L54R, H55A, D93E, T94L
B35: 373_A01 (antibody, V domains shown)
VH: B1 VH with D30S, D31S, S33G, G50N, K58T, S59G, S99G
VL: B1 VL with L30V, L54R, H55A, D93N, T94L
B36: 373_F08 (antibody, V domains shown)
VH: B1 VH with D30S, D31S, K58T, S99G, H106A
VL: B1 VL with V47L, T51A, L54R, H55A
B37: 373_A05 (antibody, V domains shown)
VH: B1 VH with D30S, G55S, S99G
VL: B1 VL with T31S, L33V, T51A, L54R, D93E, T94S
B38: 373_H09 (antibody, V domains shown)
VH: B1 VH with D30S, D31S, S33G, S49A, G50S, G55S, S99G
VL: B1 VL with L30I, T51A, L54R, H55A, Y92D, T94S
B39: 371_H06 (antibody, V domains shown)
VH: B1 VH with D31S, S33G, K58T, S99G, H106A
VL: B1 VL with L30S, T31S, T51V, L54R, H55A, T94L
B40: 367_H01 (antibody, V domains shown)
VH: B1 VH with D31S, S33G, S99A, H106A
VL: B1 VL with T51A, L54R, H55A, T94N
B41: 373_D12 (antibody, V domains shown)
VH: B1 VH with D31S, G50S, G55S, S59G, S99G
VL: B1 VL with T31S, L33V, V47L, T51A, L54R, H55A, D93S, T94L
B42: 371_H10 (antibody, V domains shown)
VH: B1 VH with D30S, D31S, S49A, G55S, S99G
VL: B1 VL with L30S, V47L, T51A, L54R, D93E, T94N
B43: 373_B05 (antibody, V domains shown)
VH: B1 VH with D30S, G50N, S99G, H106A
VL: B1 VL with L30V, T51A, L54R, H55A, D93S, T94N
B44: 373_A09 (antibody, V domains shown)
VH: B1 VH with D31S, S49A, K58T, S99G, H106A
VL: B1 VL with V47L, T51A, H55A
B45: 368_A02 (antibody, V domains shown)
VH: B1 VH with D31S, S33G, S49A, S99A
VL: B1 VL with L30I, T31S, L33V, T51A, L54R, H55A
B46: 374_A09 (antibody, V domains shown)
VH: B1 VH with D30S, D31S, G50S, S59G, S99G
VL: B1 VL with L33V, V47L, T51A, H55A, T94S
B47: 373_A12 (antibody, V domains shown)
VH: B1 VH with D30S, D31S, G50S, K58T, S99G, H106A
VL: B1 VL with T51A, L54R, H55A
B48: 373_D03 (antibody, V domains shown)
VH: B1 VH with D30S, D31S, K58T, S99G, H106A
VL: B1 VL with L30V, T31S, V47L, T51A, H55A

The binders below were run against Human Fc (human) (assay: ELISA, negative control).

Row | optical density | Binder
1 | 0.348 OD | B1
2 | 0.284 OD | B2
3 | 0.313 OD | B3
4 | 0.283 OD | B4
5 | 0.242 OD | B5
6 | 0.396 OD | B6
7 | 0.301 OD | B7
8 | 0.286 OD | B8
9 | 0.255 OD | B9
10 | 0.351 OD | B10
11 | 0.251 OD | B11
12 | 0.28 OD | B12
13 | 0.244 OD | B13
14 | 0.323 OD | B14
15 | 0.249 OD | B15

The binders below were run against human Fc (human) (assay: ELISA, negative control).

Row | optical density | Binder
16 | 0.318 OD | B16
17 | 0.173 OD | B17
18 | 0.172 OD | B18
19 | 0.171 OD | B19
20 | 0.204 OD | B20
21 | 0.206 OD | B21
22 | 0.371 OD | B22
23 | 0.158 OD | B23
24 | 0.184 OD | B24
25 | 0.172 OD | B25
26 | 0.199 OD | B26
27 | 0.265 OD | B27
28 | 0.319 OD | B28
29 | 0.409 OD | B29
30 | 0.439 OD | B30
31 | 0.189 OD | B31
32 | 0.309 OD | B32

Row | optical density | Binder
33 | 0.188 OD | B33
34 | 0.208 OD | B34
35 | 0.177 OD | B35
36 | 0.202 OD | B36
37 | 0.172 OD | B37
38 | 0.166 OD | B38
39 | 0.346 OD | B39
40 | 0.388 OD | B40
41 | 0.224 OD | B41
42 | 0.358 OD | B42
43 | 0.184 OD | B43
44 | 0.248 OD | B44
45 | 0.376 OD | B45
46 | 0.231 OD | B46
47 | 0.179 OD | B47
48 | 0.18 OD | B48

From patent US20210380703A1
